The results in this text go back to US20210221875A1 (Chugai, published 2021).

T1: soluble human IL-6R (human, UniProt P08887 20-357)
T1 construct: also called hsIL-6R; recombinant human IL6R
T1 sequence: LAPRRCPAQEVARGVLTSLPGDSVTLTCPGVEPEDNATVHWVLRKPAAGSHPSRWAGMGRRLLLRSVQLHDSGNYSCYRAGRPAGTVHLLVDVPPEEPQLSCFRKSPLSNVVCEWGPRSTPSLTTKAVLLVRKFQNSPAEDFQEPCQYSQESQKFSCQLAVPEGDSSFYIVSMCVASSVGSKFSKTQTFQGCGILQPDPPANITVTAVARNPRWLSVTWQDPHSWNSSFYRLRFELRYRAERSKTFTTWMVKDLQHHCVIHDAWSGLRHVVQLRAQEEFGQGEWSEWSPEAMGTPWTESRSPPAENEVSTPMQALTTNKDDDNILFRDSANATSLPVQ

B1: 20A11-G1m/VK1-39-k0MT (antibody, human IgG1, kappa, V domains shown)
VH: EVQLVESGGGLVQPGGSLRLSCAASGSVFKINVMAWYRQAPGKGRELVAGIISGGSTSYADSVKGRFTISRDNAKNTLYLQMNSLRPEDTAVYYCAFITTESDYDLGRRYWGQGTLVTVSS
VL: DIQMTQSPSSLSASVGDRVTITCRASQSISSYLNWYQQKPGKAPKLLIYAASSLQSGVPSRFSGSGSGTDFTLTISSLQPEDFATYYCLQFDSYPLTFGGGTKVEIKR
notes: IgG antibody-like molecule: anti-IL6R VHH 20A11 fused with human IgG1 CH1-hinge-CH2-CH3
B2: 20A11-G1m/VK2-28-k0MT (antibody, human IgG1, kappa, V domains shown)
VH: B1 VH
VL: not shown
notes: IgG antibody-like molecule with VHH 20A11 in place of VH
B3: 20A11-G1m/VL3-21-lamL (antibody, human IgG1, lambda, V domains shown)
VH: B1 VH
VL: SYVLTQPPSVSVAPGKTARITCGGNNIGSKSVHWYQQKPGQAPVLVIYYDSDRPSGIPERFSGSNSGNTATLTISRVEAGDEADYYCQAWDSSTDVVFGGGTKLTVLG
notes: as for B2
B4: 20A11-G1m/VL1-44-lamL (antibody, human IgG1, lambda, V domains shown)
VH: B1 VH
VL: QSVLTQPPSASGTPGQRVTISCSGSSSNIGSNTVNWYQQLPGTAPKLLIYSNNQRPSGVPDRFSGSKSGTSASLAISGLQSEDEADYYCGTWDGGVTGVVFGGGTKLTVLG
notes: as for B2
B5: 20A11-G1m/VL2-14-lamL (antibody, human IgG1, lambda, V domains shown)
VH: B1 VH
VL: QSALTQPASVSGSPGQSITISCTGTSSDVGGYNYVSWYQQHPGKAPKLMIYEVSNRPSGVSNRFSGSKSGNTASLTISGLQAEDEADYYCSSYRSGYTLVVFGGGTKLTVLG
notes: as for B2
B6: 20A11-G1m/VL1-40-lamL (antibody, human IgG1, lambda, V domains shown)
VH: B1 VH
VL: QSVLTQPPSVSGAPGQRVTISCTGSSSNIGAGYDVHWYQQLPGTAPKLLIYGNSNRPSGVPDRFSGSKSGTSASLAITGLQAEDEADYYCQSYDNSLNAVVFGGGTKLTVLG
notes: as for B2
B7: 20A11hu-G1m/VL1-40-lamL (antibody, human IgG1, lambda, V domains shown)
VH: B1 VH with Y37V, R45L, L47W
VL: B6 VL
notes: IgG antibody-like molecule with VHH 20A11hu in place of VH
B8: 20A11hu-G1m/VL1-44-lamL (antibody, human IgG1, lambda, V domains shown)
VH: B1 VH with Y37V, R45L, L47W
VL: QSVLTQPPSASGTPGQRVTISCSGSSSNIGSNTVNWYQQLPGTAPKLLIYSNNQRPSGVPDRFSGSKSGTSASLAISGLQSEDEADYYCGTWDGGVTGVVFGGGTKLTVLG
notes: as for B7
B9: 20A11hu-G1m/VK2-28-k0MT (antibody, human IgG1, kappa, V domains shown)
VH: B1 VH with Y37V, R45L, L47W
VL: not shown
notes: as for B7
B10: 20A11hu-G1m/VK1-39-k0MT (antibody, human IgG1, kappa, V domains shown)
VH: B1 VH with Y37V, R45L, L47W
VL: B1 VL
notes: IgG antibody-like molecule
B11: GRA1013Hhz-SG1/GRA1013Lqz-SK2 (antibody, human IgG1, kappa)
heavy: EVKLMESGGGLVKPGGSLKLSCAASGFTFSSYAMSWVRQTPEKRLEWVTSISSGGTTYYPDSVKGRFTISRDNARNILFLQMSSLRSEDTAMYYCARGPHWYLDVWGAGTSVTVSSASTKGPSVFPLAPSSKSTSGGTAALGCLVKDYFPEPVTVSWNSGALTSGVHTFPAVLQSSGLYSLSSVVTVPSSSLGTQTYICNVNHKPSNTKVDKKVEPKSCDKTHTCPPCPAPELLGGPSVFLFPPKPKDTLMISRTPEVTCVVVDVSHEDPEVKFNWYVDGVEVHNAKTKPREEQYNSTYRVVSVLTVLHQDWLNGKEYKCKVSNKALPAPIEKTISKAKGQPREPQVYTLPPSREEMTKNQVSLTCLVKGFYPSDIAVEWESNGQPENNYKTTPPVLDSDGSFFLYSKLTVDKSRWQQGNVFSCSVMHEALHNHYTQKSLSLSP
light: DILMTQTPLSLPVSLGDQASISCRSSQSIVHSNGNTYLEWYLQKPGQSPKLLIYKVSNRFSGVPDRFSGSGSGTDFTLKISRVEAEDLGVYYCFQGSHLPLTFGAGTKLELKRTVAAPSVFIFPPSDEQLKSGTASVVCLLNNFYPREAKVQWKVDNALQSGNSQESVTEQDSKDCTYSLSSTLTLSKADYEKHKVYACEVTHQGLSSPVTKSFNRGEC
notes: full length antibody
B12: GRA0124Hc0626-SG1/GRA0124Lc0544-SK2021 (antibody, human IgG1, kappa)
heavy: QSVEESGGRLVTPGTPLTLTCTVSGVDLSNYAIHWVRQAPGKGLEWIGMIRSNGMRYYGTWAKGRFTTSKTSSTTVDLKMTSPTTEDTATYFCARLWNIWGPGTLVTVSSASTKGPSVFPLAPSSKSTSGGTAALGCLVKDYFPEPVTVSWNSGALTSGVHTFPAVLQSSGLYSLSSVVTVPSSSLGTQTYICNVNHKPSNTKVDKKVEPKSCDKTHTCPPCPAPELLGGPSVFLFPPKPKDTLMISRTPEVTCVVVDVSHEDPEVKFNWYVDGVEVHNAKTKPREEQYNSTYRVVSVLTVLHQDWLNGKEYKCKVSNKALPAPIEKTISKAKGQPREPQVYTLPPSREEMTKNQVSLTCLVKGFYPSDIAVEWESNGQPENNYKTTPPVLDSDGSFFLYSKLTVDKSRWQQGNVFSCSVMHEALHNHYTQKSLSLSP
light: AQVLTQTPSSTSVAVGGTVTINCQSSPSVYLNLLAWYQQKPGQPPKLLIYSASFLQSGVPPRFSGSGSGTQFTLTISGVQCADAATYYCAGVYSNNIYTFGGGTKVEIKETVAAPSVFIFPPSDEQLKSGTASVVCLLNNFYPREAEVQWKVDNALQSGNSQESVTEQDSKDCTYSLSSTLTLSKADYEKHKVYACEVTHQGLSSPVTKSFNRGEC
notes: the row with this full length name is used
B13: GRA0124Hc0626-SG1286/GRA0124Lc0544-SK2027 (antibody, human IgG1, kappa)
heavy: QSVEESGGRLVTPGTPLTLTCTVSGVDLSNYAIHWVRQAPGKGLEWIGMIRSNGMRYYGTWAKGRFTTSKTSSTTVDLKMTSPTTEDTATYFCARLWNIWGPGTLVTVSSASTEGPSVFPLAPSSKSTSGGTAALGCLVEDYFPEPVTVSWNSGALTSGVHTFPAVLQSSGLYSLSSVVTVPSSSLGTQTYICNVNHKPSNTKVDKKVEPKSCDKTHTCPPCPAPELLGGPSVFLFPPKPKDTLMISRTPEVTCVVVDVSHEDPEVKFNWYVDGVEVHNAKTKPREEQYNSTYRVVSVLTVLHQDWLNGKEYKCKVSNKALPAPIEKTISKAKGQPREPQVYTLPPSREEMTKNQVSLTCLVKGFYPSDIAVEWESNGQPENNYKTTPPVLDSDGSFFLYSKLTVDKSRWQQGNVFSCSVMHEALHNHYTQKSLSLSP
light: B12 light with K171E
notes: full length antibody
B14: GRA0124Hc0626-SG1/GRA0124Lc0951-SK2 (antibody, human IgG1, kappa, V domains shown)
VH: QSVEESGGRLVTPGTPLTLTCTVSGVDLSNYAIHWVRQAPGKGLEWIGMIRSNGMRYYGTWAKGRFTTSKTSSTTVDLKMTSPTTEDTATYFCARLWNIWGPGTLVTVSS
VL: AQVLTQTPSSTSVAVGGTVTINCQSSPSVYLNLLAWYQQKPGQPPKLLIYSASFLQSDVPDRFSGSGDGDQFDLDIDGVQCADAATYYCAGVYSNNIYTFGGGTKVEIKR
notes: full length antibody
B15: GRA0124Hc1075-SG1/GRA0124Lc0952-SK2 (antibody, human IgG1, kappa, V domains shown)
VH: B14 VH with R9D, S24D
VL: B14 VL with T5D
notes: full length antibody
B16: GRA0124Hc0626-SG1286/GRA0124Lc0544-SK2 (antibody, human IgG1, kappa)
heavy: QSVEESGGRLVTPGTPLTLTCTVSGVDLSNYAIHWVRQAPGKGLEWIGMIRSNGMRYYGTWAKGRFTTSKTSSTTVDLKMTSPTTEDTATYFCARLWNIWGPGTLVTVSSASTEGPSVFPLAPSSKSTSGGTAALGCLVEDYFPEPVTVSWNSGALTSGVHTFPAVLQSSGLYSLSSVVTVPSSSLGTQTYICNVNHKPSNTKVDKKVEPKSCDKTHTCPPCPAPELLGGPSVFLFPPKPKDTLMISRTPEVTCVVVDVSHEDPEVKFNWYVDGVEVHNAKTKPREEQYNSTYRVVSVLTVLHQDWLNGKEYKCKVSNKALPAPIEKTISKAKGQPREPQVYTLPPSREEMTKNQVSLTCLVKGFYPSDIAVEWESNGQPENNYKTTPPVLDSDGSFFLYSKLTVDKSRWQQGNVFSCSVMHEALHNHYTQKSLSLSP
light: B12 light with E110R, E147K
B17: GRA0124Hc0626-SG1265/GRA0124Lc0544-SK2 (antibody, human IgG1, kappa)
heavy: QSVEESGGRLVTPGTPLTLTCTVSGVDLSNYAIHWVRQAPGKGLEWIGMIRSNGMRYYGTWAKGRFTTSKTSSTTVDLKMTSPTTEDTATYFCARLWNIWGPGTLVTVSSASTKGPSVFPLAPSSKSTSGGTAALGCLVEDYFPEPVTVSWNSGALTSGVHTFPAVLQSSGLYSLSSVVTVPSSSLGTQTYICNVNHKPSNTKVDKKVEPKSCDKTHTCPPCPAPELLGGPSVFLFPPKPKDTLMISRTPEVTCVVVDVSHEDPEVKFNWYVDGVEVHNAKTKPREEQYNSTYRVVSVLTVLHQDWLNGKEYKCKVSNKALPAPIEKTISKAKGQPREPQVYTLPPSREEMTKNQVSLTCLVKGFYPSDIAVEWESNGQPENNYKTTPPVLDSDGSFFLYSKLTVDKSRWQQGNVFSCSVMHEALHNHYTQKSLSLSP
light: B12 light with E110R, E147K
notes: full length antibody
B18: GRA0124Hc0626-SG1265/GRA0124Lc0544-SK2021 (antibody, human IgG1, kappa)
heavy: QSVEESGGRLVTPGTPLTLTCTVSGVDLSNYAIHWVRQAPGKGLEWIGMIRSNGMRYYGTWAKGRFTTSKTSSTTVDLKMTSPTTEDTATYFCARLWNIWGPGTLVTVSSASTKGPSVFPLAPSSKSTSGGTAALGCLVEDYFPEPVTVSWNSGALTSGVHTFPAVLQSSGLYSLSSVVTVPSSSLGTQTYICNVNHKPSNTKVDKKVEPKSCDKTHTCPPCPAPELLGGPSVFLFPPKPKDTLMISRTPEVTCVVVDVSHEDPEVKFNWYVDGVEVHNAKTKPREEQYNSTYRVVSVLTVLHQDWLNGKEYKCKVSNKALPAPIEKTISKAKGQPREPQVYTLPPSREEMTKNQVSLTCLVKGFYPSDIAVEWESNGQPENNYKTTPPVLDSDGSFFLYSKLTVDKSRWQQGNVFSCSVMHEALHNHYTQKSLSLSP
light: B12 light
notes: the L chain name is printed with both 563 and 564 (564 stands in the row of the Fab SG1265/SK2021)
B19: GRA0124Hc0626-SG1/GRA0124Lc0694-SK2 (antibody, human IgG1, kappa, V domains shown)
VH: B14 VH
VL: B14 VL with F54A, D58G, D61P, D68S, D70T, D73T, D75T, D77S
notes: full length antibody
B20: GRA0124Hc0626-SG1286/GRA0124Lc0544-SK2025 (antibody, human IgG1, kappa)
heavy: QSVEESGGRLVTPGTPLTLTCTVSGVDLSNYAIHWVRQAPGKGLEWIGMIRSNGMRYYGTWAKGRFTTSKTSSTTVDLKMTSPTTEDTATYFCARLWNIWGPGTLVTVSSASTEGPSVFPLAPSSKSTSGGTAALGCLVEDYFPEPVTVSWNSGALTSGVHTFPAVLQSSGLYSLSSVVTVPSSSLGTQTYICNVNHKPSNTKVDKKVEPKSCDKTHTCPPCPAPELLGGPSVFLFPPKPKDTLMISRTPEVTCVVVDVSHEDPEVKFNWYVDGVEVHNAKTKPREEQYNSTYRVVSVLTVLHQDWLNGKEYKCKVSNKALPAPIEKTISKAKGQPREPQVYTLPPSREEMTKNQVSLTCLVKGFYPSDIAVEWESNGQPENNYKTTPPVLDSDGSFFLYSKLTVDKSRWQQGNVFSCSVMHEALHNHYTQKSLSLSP
light: B12 light with E110R, K171E
B21: GRA0105Hg-SG1/GRA0105Lg-SK2 (antibody, human IgG1, kappa)
heavy: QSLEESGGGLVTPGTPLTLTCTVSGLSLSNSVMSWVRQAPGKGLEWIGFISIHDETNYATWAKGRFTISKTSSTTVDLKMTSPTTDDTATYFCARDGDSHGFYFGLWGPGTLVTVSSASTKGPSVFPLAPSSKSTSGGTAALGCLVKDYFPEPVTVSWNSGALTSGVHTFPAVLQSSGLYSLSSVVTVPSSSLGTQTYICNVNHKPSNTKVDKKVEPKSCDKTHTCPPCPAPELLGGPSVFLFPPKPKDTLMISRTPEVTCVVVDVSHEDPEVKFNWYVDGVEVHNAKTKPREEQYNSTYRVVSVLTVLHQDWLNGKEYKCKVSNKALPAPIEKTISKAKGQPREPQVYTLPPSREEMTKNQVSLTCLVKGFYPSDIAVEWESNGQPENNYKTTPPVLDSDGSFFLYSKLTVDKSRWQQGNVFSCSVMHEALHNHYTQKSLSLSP
light: AQVLTQTPSPVSAAVGGTVTINCQASQSVYNKNNLAWYQQKPGQPPKLLIYDASKLASGVPSRFKGGGSGTHFTLTISGVQCDDAATYYCQGTYYSSGWYNTFGGGTKVEIKRTVAAPSVFIFPPSDEQLKSGTASVVCLLNNFYPREAKVQWKVDNALQSGNSQESVTEQDSKDCTYSLSSTLTLSKADYEKHKVYACEVTHQGLSSPVTKSFNRGEC
notes: full length antibody

Changes are numbered by the printed parent chain.

The first assay concerns the target T1, soluble human IL-6R. Description: BLI (Octet), in the same way as in Example 3.
On to B1, for which the binding result is given as “binds”.

With B2, the binding result is “binds”.

Take B3: the binding result was “binds”.

With B4, the binding result is reported as “binds”.

With B5, the binding result was “binds”.

For the molecule B6, the binding result is recorded as “binds”.

For another assay, the target named is T1, soluble human IL-6R. Description: BLI (Octet), in the same way as in Example 3, 30 C or 25 C.
Turning to B7, the binding result is “no binding”.

Consider B8, for which the binding result was “no binding”.

In the case of B9, the binding result is “no binding”.

On to B10, for which the binding result is “no binding”.

The next assay has as its target T2, biotin-rabbit aggrecan G1-IGD-G2-3xFlag (rabbit, UniProt Q28670 17-683, biotin on the N-terminal Avi-tag (BirA co-expression)).
T2 construct: three tandem Flag-tags at the C-terminus and Avi-tag at the N-terminus; also called biotinylated Avi-rabbit aggrecan G1-IGD-G2-3xFLAG; Avi RbG1G2 3FLAG
The assay is described as follows: SPR (Biacore T200), 37 C, pH 7.4, antibody captured, Avi RbG1G2 3Flag as analyte, 1:1 model.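 Also: antibodies captured at roughly 200 RU on a CM4 or C1 chip through anti-human IgG Fc or Protein A/G, in sodium phosphate NaCl buffer with Tween 20.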
Description: Anti-Human IgG (Fc) antibody was immobilized onto all flow cells of a CM4 sensor chip using Human antibody capture kit (GE Healthcare). Protein A/G was immobilized onto all flow cells of a CM4 or C1 sensor chip using amine coupling kit (GE Healthcare). Antibodies and analytes were prepared in buffer (50 mM Sodium Phosphate, 150 mM NaCl, 0.02% Tween 20, 0.005% NaN3, pH 7.4 or 20 mM Sodium Phosphate, 150 mM NaCl, 0.05% Tween20, 0.005% NaN₃, pH 7.4). Each antibody was captured onto the sensor surface by Anti-Human IgG (Fc) antibody or Protein A/G. Antibody capture levels were aimed at 200 resonance unit (RU). […] Sensor surface was regenerated each cycle with 3 M MgCl₂ or 10 mM Glycine-HCl, pH 1.5.
Molecule B11 yielded a dissociation constant (Kd) of 256 nM, an off-rate (koff) of 0.0147 s⁻¹ and a kon of 57600 M⁻¹ s⁻¹.

Turning to B12, the Kd worked out at 13.4 nM, the koff is 0.000718 s⁻¹ and the kon was found to be 53500 M⁻¹ s⁻¹.

Molecule B13 yielded a Kd of 15.1 nM, a dissociation rate constant (koff) of 0.00078 s⁻¹ and an on-rate constant (kon) of 51700 M⁻¹ s⁻¹.

For the molecule B14, the dissociation constant (Kd) was determined as 4.04 nM, the koff stood at 0.000321 s⁻¹ and the kon turned out to be 79400 M⁻¹ s⁻¹.

In turn, B15 returned a dissociation constant Kd of 3.68 nM, a koff of 0.000267 s⁻¹ and an association rate constant (kon) of 72700 M⁻¹ s⁻¹.

The molecule B16 displayed a Kd of 17 nM, a koff of 0.000883 s⁻¹ and a kon of 51900 M⁻¹ s⁻¹.

As for B17, the dissociation constant (Kd) came to 15.9 nM, the koff is 0.000837 s⁻¹ and the kon is 52700 M⁻¹ s⁻¹.

B18 displayed a Kd of 14.4 nM, a koff of 0.000757 s⁻¹ and an on-rate (kon) of 52700 M⁻¹ s⁻¹.

With B19, the dissociation constant Kd is 77.5 nM, the koff is 0.00202 s⁻¹ and the on-rate (kon) amounted to 26100 M⁻¹ s⁻¹.

For B20, the Kd is 15.2 nM, the dissociation rate constant (koff) is 0.000786 s⁻¹ and the association rate constant (kon) is 51900 M⁻¹ s⁻¹.

The molecule B21 showed a Kd of 3.28 nM, a dissociation rate constant (koff) of 0.000455 s⁻¹ and a kon of 139000 M⁻¹ s⁻¹.
